Target: PEDF receptor (unidentified cell surface receptor on bovine retinal capillary endothelial cells)
Test: cell-based or functional assay

inhibition of VEGF stimulated endothelial cell migration (BRCEC microchemotaxis chamber), IC50: 500 pM
Substance: Recombinant human pigment epithelium-derived factor (PEDF) (from UniProt P36955 20-418) (ligand)
